Experimental data published in patent US20240368258A1 (RUTGERS THE STATE UNIVERSITY OF NEW JERSEY, published 2024).

B1: antiGRP78_F6 scFv (scFv)
scFv: SYELTQPHSVSVAPGQTARITCGGDNIGSKSVHWYQQRPGQAPVLVVYDDSDRPSGIPERFSGSNSENTATLTISGVEAGDEADYYCQVWDSTSHHVVFGGGTKLTVLSGGSTITSYNVYYTKLSSSGTQVQLQQSGPGLVKPPQTLSLTCAISGDSVSSNSAAWNWIRQSPSRGLEWLGRTYYRSKWYNDYAVSVKSRITINPDTSKNQFSLQLNSVTPEDTAVYYCARDPYYYDSSGYYYFDAFDIWGQGTMVTVSS
B2: antiEphA5_F31 scFv (scFv)
scFv: SYELTQPPSVSVAPGKTARITCEGNNIGSKGVHWYQQKPGQAPALVVYDGSDRPSGIPERFSGSNSGNTATLTISRVEAGDEADYYCQVWDNSSDHPNYVFGTRTKLTVLSGGSTKTSYNVYYTKLSSSGTQVQLVETGGGLVQPGGSLRLSCAASGFTFSSYAMSWVRQAPGKGLEWVSAISGSGGSTYYADSVKGRFTISRDNSKNTLYLQMNSLRAEDTAVYYCARVAAGDYWGQGTLVTVSS
B3: antiEphA5_T22 scFv (scFv)
scFv: QPVLTQSSSLSASPGASVSLTCTLRSGINVGPYRMYWYQQKPGSPPQYLLSYKSDSDTQQASGVPSRFSGSKDASANAGILLISGLQSEDEADYYCMIWHNNAVVFGGGTKLTVLSGGSTITSYNVYYTKLSSSGTQVQLVQSGTEVKKPGASVKVSCKVSGYSLSELSMHWVRQAPGKGLEWMGSFDPEDGETTYAQRFQGRVTMTEDTSTDTAYMELRSLTSDDTAVYYCAREIWSGYAYFDLWGRGTLVTVSS
B4: antiGRP78_B4 scFv (scFv)
scFv: SYVLTQPPSVSVAPGKTATITCGGDDIGSKSVHWYQQKPGQAPVLVVYDDGDRPSGIPERFSGSNSGNTATLAISRVEAGDEADYYCQVWDSSSDQYVFGSGTKLTVLSGGSTITSYNVYYTKLSSSGTQVRLQESGPGLVKPSQTLSLTCTVSGGSISSGGYYWSWIRQHPGKGLEWIGYIYYSGSTYYNPSLESRVTISVDTSKNQFSLKLSSVTAADTAVYYCARYSSIDAFEIWGQGTMVTVSS

Assays:
[1] = molecular target: T1, GRP78 on the surface of MCF-7 human breast cancer cells (human, UniProt P11021 19-654); test: whole cell phage-ELISA, monovalent phage on MCF-7 cells
T1 construct: whole, on cells; also called surface GRP78; 78 kDa glucose-regulated protein
Description: FIG. 8. Phage binding on cells. […] Single scFv clones were produced as monovalent phage and tested for binding on MCF-7 in vitro. Briefly, cells were seeded on 96-well plate, blocked and incubated with phage displaying the scFv of interest at different concentrations. After washing, cell surface bound phage were detected with the antiM13-HRP conjugated mAb (GE).
Single scFv clones were produced as monovalent phage and tested for binding on MCF-7 in vitro. Briefly, cells were seeded on 96-well plate, blocked and incubated with phage displaying the scFv of interest at different concentrations. After washing, cell surface bound phage were detected with the antiM13-HRP conjugated mAb (GE). […] Anti-GRP78 phage bind specifically to cells expressing surface GRP78.

[2] = molecular target: T2, EphA5 expressed on H460 human lung carcinoma cells (human, UniProt P54756 25-1037); test: whole cell phage-ELISA, monovalent phage on H460 cells
T2 construct: whole, on cells; H226 cells served as the EphA5-negative cell line; also called native EphA5 target; endogenous EphA5 expressed on the cell surface
Description: Single scFv clones were produced as monovalent phage and tested for binding on H460 human lung carcinoma (EphA5 positive) and H226 human lung squamous cell carcinoma (EphA5 negative) cell lines in vitro. Briefly, cells were seeded on 96-well plate, blocked and incubated with phage displaying the scFv of interest at different concentrations. After washing, cell surface bound phage were detected with the antiM13-HRP conjugated mAb (GE).

T1 sequence (P11021 19-654): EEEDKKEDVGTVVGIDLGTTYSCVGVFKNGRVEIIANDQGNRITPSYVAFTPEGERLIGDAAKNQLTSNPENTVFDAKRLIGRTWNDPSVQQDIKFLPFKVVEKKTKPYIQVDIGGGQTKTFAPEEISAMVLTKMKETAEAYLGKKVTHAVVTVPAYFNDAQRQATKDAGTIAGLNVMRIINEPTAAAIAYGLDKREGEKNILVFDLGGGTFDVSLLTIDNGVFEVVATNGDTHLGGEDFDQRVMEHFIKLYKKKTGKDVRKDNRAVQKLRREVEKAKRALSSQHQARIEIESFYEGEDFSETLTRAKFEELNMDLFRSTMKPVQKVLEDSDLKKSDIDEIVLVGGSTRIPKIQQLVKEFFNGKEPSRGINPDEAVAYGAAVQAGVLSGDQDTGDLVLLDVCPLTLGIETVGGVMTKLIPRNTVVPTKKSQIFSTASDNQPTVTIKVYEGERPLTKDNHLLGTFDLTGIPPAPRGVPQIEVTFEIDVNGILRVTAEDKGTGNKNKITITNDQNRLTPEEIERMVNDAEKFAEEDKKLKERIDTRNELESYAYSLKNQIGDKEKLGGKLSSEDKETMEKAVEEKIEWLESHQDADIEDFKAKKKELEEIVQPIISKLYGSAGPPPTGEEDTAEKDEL
T2 sequence (P54756 25-1037): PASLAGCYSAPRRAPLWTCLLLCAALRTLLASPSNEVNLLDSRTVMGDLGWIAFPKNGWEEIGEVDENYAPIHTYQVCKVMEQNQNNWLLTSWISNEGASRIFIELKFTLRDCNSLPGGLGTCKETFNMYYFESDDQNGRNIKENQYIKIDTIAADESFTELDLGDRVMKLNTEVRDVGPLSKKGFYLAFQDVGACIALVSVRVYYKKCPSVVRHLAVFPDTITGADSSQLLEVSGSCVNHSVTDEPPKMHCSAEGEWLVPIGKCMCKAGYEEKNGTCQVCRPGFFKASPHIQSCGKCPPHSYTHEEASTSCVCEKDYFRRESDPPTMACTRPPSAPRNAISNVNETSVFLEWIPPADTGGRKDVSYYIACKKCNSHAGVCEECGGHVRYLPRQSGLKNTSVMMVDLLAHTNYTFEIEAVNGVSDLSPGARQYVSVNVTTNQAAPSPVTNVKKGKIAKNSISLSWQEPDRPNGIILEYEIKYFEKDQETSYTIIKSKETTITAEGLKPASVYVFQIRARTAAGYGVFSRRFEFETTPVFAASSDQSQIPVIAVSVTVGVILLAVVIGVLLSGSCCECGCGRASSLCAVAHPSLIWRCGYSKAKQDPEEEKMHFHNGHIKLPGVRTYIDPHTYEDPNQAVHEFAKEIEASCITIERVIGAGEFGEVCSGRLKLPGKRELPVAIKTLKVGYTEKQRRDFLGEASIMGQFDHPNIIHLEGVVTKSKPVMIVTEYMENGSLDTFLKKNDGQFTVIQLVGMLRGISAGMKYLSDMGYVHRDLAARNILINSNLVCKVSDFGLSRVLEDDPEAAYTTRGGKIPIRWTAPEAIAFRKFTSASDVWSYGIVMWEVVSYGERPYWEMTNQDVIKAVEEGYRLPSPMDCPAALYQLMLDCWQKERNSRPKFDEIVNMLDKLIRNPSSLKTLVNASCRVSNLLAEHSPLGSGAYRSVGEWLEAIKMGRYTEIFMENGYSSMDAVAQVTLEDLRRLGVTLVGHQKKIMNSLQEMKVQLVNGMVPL

| binding result [1] | binding result [2] | Binder |
| --- | --- | --- |
| binds | – | B1 |
| – | binds | B2 |
| – | binds | B3 |
| binds | – | B4 |
